This passage reports DC50 (time for loss of 50% of the complexes) results from patent publication US20060263381A1.

Where only a bound is given, the exact number is not on record here.

For this assay, the target named is HLA-A*0201 molecule (human). As to the kind of experiment: T2 cells loaded with 100 µM peptide, Brefeldin A, flow cytometry with BB7.2 at 0-8 h. To be noted: remark: other sources report otherwise. (A flow cytometer gives signals particle by particle.)

In turn, YEFLWGPRA [p262 (…)] had a DC50 (time for loss of 50% of the complexes) of under 2 h.
